Assay: soluble on expression in E. coli; label from the status in PepcDB or PDB records

Row | Sequence | soluble on expression in E. coli
1 | MGSDKIHHHHHHMRLRELELFLDLLATKSLTQSAERLGMSQPNASHLLSKLEEKGGSKLFDRSGKRLLPLSSALFLEPRAKEIVRLWREAQEELLDQSSLCGELRIAATHTIGEYLLPEILFEFRQTHPKVHLQARIHNTAECLEALLGGEVEQAFIEGETEDNQGVMKRFLRRDELAVVTSDEGLAARARYIDELFDRPWILREKGSGMRDAFLREVVDVKESFPLFLELDRSEAIKRLIQSHGALGCLSLLSVQREIKEGRLFRVEIIGREFWRHFYEVRREGSLGRLAKVFGEFVSVRLSESD | not soluble
2 | MTQVRETVSFKAGDVILYPGVPGPRDRAYRVLEGLVRLEAVDEEGNALTLRLVRPGGFFGEEALFGQERIYFAEAATDVRLEPLPENPDPELLKDLAQHLSQGLAEAYRRIERLATQRLKNRMAAALLELSETPLAHEEEGKVVLKATHDELAAAVGSVRETVTKVIGELAREGYIRSGYGKIQLLDLKGLKELAESRGQGR | soluble
3 | GSHMKHTELRAAVLDALEKHDTGATFFDGRPAVFDEADFPAVAVYLTGAEYTGEELDSDTWQAELHIEVFLPAQVPDSELDAWMESRIYPVMSDIPALSDLITSMVASGYDYRRDDDAGLWSSADLTYVITYEM | soluble
4 | MGSDKIHHHHHHMELQLMQWQVGDLPFFYRCQPQPSNAPYGLPDSLPFCLEFDSALGLIRQSPNTQVEAALERCYQHGSTISGMMDSGGIGQQYARDFLDFIAHHETDLTGKRVLEIGCGTGYLLSLLKQKGADVLGIEPGAQGQGGQQRHGVPIIDGFFPHPKAEGKFDLIVAYAVLEHIGEPQGFLEKIADSLAPDGVAYIAVPDCAPYIENGDISCLLHEHWSYFDASSLQRLLEVSGFAAAVQPAGFGGSIYARAVRVSHKTKPVNDEIDLAGNGFERFRSLALGAGQRLERFLAGPGQAGIYVPGRMINLLASLDSVDLAQVRLFDDNEALTGLYFPGMPNPIEDFSGLVERPPARLLIATKSFHFQIADRIEHASVEVPLLAWSDLFLVAAPK | not soluble
5 | MGSDKIHHHHHHMKYISPGDWFSLEYPMGWHEFEDTEESFLFYNPDRWTGNFRISAYKDEAADYGPQCIAYELKENTSSALVKVGKWDCAYSAETFQEEGAWYTTHIWVTGEGDLSFECSFTVSKGGDKHPAEEIIRSLQVRKEGVSHPREIIPIRVLEIGEVNTAFEWASTTIKKQLTKDFTASESDIDSIQQVMDSGRFQTQQRMAWENFGIAFGAILVNEMEGMEWVTVIEGQKEYPALQFMCSDMVLDPAALVWGKAKKGLPCDLKSEFRKIKREAEAVLDDLNK | not soluble
6 | MYAMNLARYKYCPDIKEKGLSGSPRLILFTSAECHYSMKKAASFLGIGTENVCFVETDGRGKMIPEELEKQVWQARKEGAAPFLVCATSGTTVLGAFDPLDEIADICERHSLWLHVDASWGGSALMSRKHRKLLHGIHRADSVAWNPHKMLMAGIQCCALLVKDKSDLLKKCYSAKASYLFQQDKFYDVSYDTGDKSIQCSRRPDAFKFWMTWKALGTLGLEERVNRALALSRYLVDEIKKREGFKLLMEPEYANICFWYIPPSLREMEEGPEFWAKLNLVAPAIKERMMKKGSLMLGYQPHRGKVNFFRQVVISPQVSREDMDFLLDEIDLLGKDM | soluble
7 | AGIVNQVTAKNITADLQGGYPWSESNPLLLSDVSVDVLGGQIIMKQLRMPQHDPALLRVQNISSSELISAINPKQFAMSGPVSGALPLWLNNEKWIIKDGWLTNPGPMTLRIDKDTADAVVKDNVTAGSAINWLRYMEITHSWTKINVDNLGVLTMQAAITGKSRVDGKTAIVNLNYTHEENVFTLWRSLRFGDNLQAWLEQNTALPQPP | not soluble
8 | MSLGKGVRDPGSDGSLRRKELAMIKVEDMMTRHPHTLLRTHTLNDAKHLMEALDIRHVPIVDANKKLLGIVSQRDLLAAQESSLQRSAQGDSLAFETPLFEVMHTDVTSVAPQAGLKESAIYMQKHKIGCLPVVAKDVLVGIITDSDFVTIAINLLELQEESEPDELDEEQEGGSHHHHHH | soluble
9 | MTDSTTLYPVFAEELLPGGGHRSFILKRGELLRLTDLNGNANVSLTLLNAHEKTERLNLPDSLKCQHTAKLSNGHCLYSDMGRVLAAIVTDTCGWSDSIGGVLNAQEVAEKYGQGRYQELRNGFFRNGVDNLLVELGKWGLGLSDLLMTLNLFSRVDVSETGTLHFAPNNSKAGDYIELYAPMDTLVVLTALQHPMDPNPDYVPQPLTLSWMKADASVAEHCRTSRPENERGFINTDRLFALEHHHHHH | soluble
10 | MTTSAMTAPDTRRQLQHVETLRRFLRGDSCFVHDLRGMMDYHDGLSRRQQRAFCRASRVLTDPEPIQSEAEGENKQFTEHTHKVVSFFIKSVFVFPYLVLPNCCQVSVDRSRVPETGGRWLLEHHHHHH | not soluble
11 | MGSDKIHHHHHHEDVYREVTASGAHNLTLAVDNPRNLGGADDAALARDVAEVLRFDMTLAGPFSVMAPPAGTSPGGIRPGEFDLDSWRNAGVDLLVKSGYTITGDSVTMEFRLYNATQGRELAAKRYTGKRSDLRRITHTFSDDIMQTMTGERGPFTGKIAFVSTESGNKEIYLMDYDGHNVQRLTKNRSINLNPDFSPNGRELAYTSYRRGNPDLFRREIFTGTEAVVSSHRGINVTGTWSPDGKQLALAMSRDGNSEIYAISRDGRDPRRLTTHQAIDVSPAWSPDGKRIAFVSDRLGKPQVFIMNADGSDVRRLTTSGAYNVSPRWSPKGDRLVYCRQEGGFQIYSIATDGTGDTRLTSEGSNEHPRWSPDGRFLTFSSTRDGGEAIYVMRSDGSGQTRVYRSKGKASHPTWSPRW | not soluble
12 | LEAPRDLEAKEVTPRTALLTWTEPPVRPAGYLLSFHTPGGQTQEILLPGGITSHQLLGLFPSTSYNARLQAMWGQSLLPPVSTSFTTGGLRI | soluble
13 | NVLLLDVTPLTLGIETFGGAFSPLIPRNTTVPVKKTEIFSTGVDGQAGVDIKVFQGERGLVRNNKLIGDLKLTGITPLPKGIPQIYVTFDIDADGIINVSAAEKSSGKQQSITVIPNSGLSEEEIAKLIEEANANRAQDNLIRQRLELISKADIMISDTENLFKRYEKLISSEKEYSNIVEDIKALRQAIKNFKANENDMSIDVNGIKKATDALQGRALKLFQSATKNQQNQGK | soluble
14 | MSLTVIRKQDVISSVADALQYISYYHPLDFVKALEKAYQREESQAAKDSIAQILINSRMSAEGHRPICQDTGIVTCFVNIGMGVQWDSTDMTVQQMVDEGVRQAYTNPDNPLRASVLMDPAGKRINTKDNTPAVVHINMVPGDKVDIQIAAKGGGSENKTKMVMLNPSDDIAEWVEKTVPLMGAGWCPPGMLGIGIGGTAEKAAVLAKEALMEHIDIHELIERGPQNAEEELRLDIFNRVNKLGIGAQGLGGLTTVVDVKIKSAPTHAASKPVCMIPNCAATRHVHFTLDGSGPAQLTPPKLEDWPQITWEAGANTRRVNLDNITREEIQTWKTGETVLLSGKILTGRDAAHKRIQTMLQKGEKLPDSVDLKDKFIYYVGPVDAVGDEVVGPAGPTTSTRMDKFTDMMLEEVGVMGMIGKAERGPATVESIKKHKAVYLMAVGGAAYLVAKAIKKARVVAFEDLGMEAIYEFEVEDMPVTVAVDSTGANAHQIGPDTWRVKIAEAAKEGGSHHHHHH | soluble
15 | MFVRFASAQSVPPGDIQTQPGTKIVFNAPYDDKHTYHIKVINSSARRIGYGIKTTNIKRLGVDPPCGVLDPKEAVLLAVSCDAFAFGQEDTNNDRITVEWTNTPDGAAKQFRREWFQGDGMVRRKNLPIEYNP | soluble
16 | MDLPQKKKFTESERAALAKKLDDDLDQFMEEMAARKSDKKEERKPFDFDDWCKEIDQHPAFMTEMPTDGKYQDTIEALQSMKYDKEDDEDKQMNAEHHKEEGNKHFKFKKYRWATDCYSNGIKENSPDRKLNAVLYFNRAAAQKHLGNLRSAIKDCSMGRKFDPTHLKGVIRGAECLLELEYAKDALNWIESSKKIFAFTKETSDTPDLTDDEKKFIDQLETLRVKSVELSLKEERDKRKSRAEERKETESKKQLLDALKERNLNLCPRVPFDRPELMDMARLTVSLPLMHSHECVKFDDDLNLVWPILLQYPEAGQTDVLTETNELTTVGELLKEVLNSPAQWDPEHKFNFENVRFFVSDEYDEYLMEVYEWNDFKSVLSMPGYQIKQGLPVIMIMTKEKAASSLEALAEDENRYVAK | soluble
17 | GPLGSCSSPQVEIPTTYSPEKIAQLQVYVNPIAVARDGMEKRLQGLIADQNWVDTQTYIHGPLGQLRRDMLGLASSLLPKDQDKAKTLAKEVFGHLERLDAAAKDRNGSQAKIQYQEALADFDSFLNLLPQAS | soluble
18 | MGSDKIHHHHHHMITAAVVTFHTSRKDLIRLIDCVLQSSVDKFFIIDNSTNDALRELESVSERITYIYSDNLGFGSGHNIAIDRAIDLGSDYHIIINPDIYWNGDIIEQLVQFMDQNKDCGLVMPKILYPNGEVQYLCKLLPTPLDLFGRRFIPFKMFQEKRNAWYEMHWSGYDKVMEVPSLSGCFMFIRTDILKKTGGFDKRFFMYAEDMDLCRRIGEITRTMYYPSVLVFHEYEKGSYKNRKLLKYHICSIIKYFNKWGWFIDKKRRKKNDYCLKLTEHIRN | not soluble
19 | MGSDKIHHHHHHMGTRLDILMIHSNLPLLNMLWAHITDELERLDKMLNRFDATSEVSKLNSHTQQDSVSVSAELEDILRSCQYYYEKTLHLFDITLNDFSQIQIHGNHHISFSNFSVTLDFGGFAKGYALKKIQEILLRGNIENAFVDFGNSSIMGIGHHPYGDCWKVSLQNPYTQQTLDEFCLTDNTLSTSGNTEQYTGHIINPLTGIYNEQKKVTSILSDNPLDAEILSTVWMIADDQQREQINENFKHIKGTIYTL | not soluble
20 | MIGSYLKIDSKPLSYQSSKAVLKHLDYNSRFQLHEQCPSLRNVLKVTPGFLNRLEFVGDCVKINGTTYQLKMTPVKLGSTTNHIQLWINGNLYAKTVSEPQNNKELAYLVCKLLRQAWEAVLYVGTLVYGNLIFPGFPKFFKFHVQHLVIGKDQDASDVLRRFGENFQNSSFKSLELFRTSSFEVPLIQSAEKLIINERMDLSALKSRRVHVEFKIDSKFLTDLIDCWLWNGAVGKTEKEAGSVFIFAMKGFREARMFVDDVKMKFEGKFYVDKR | not soluble
21 | MAGPLSGLRVVELAGIGPGPHAAMILGDLGADVVRIDRPSSVDGISRDAMLRNRRIVTADLKSDQGLELALKLIAKADVLIEGYRPGVTERLGLGPEECAKVNDRLIYARMTGWGQTGPRSQQAGHDINYISLNGILHAIGRGDERPVPPLNLVGDFGGGSMFLLVGILAALWERQSSGKGQVVDAAMVDGSSVLIQMMWAMRATGMWTDTRGANMLDGGAPYYDTYECADGRYVAVGAIEPQFYAAMLAGLGLDAAELPPQNDRARWPELRALLTEAFASHDRDHWGAVFANSDACVTPVLAFGEVHNEPHIIERNTFYEANGGWQPMPAPRFSRTASSQPRPPAATIDIEAVLTDWDG | soluble
22 | MGSDKIHHHHHHMIRANRHKRVIAVCGKGGVGKTAFTAMLTRSLLESQKAGDLLVIDADPAMGLPNTLGIQVEKTIGHVRDLIINTARAGIGEDRVDLSSRLDYLVLETLYESDDYAFLAMGRTDSQGCFCSVNDLLKKSIRILSERFDTIVIDGEAGLEQMNRQVMNMVDLLIILSDTSTRGLQTVEHITKMVTEDHVIDCTQLGVVFNRVINNELLLTQAAERIGIEVFGMVPQDQSIVHYDLIGQPLTELPADSLALSAIRDFVANHIVQLDCR | not soluble
23 | MGHHHHHHSHMANSMANSMIRNKVMEQSFIEYSLGKDASSAVLWVYPARKPRGKAIIMCPGGGFNQIASDHEGRDFAAWFNNQGITYAVLNYRMPHGDVEVIREDIREAIRLIRRQSAEWGIHQLGVMGASIGGYIAATAATLYTGTDRPDFQVLLYPVISMTDRLTHWPSRERMLGETISEGLKETLSLELHVTADTPPTFIVLAEDDQAVSPLNSIVYYTALLKHGVSAGLHIYPEGGHSFGFRDSFIYKELWTDELQKWLLTF | soluble

— the DeepSol protein solubility set
